In patent WO2011158973A1 (dated 2011):

T1: human fibrinogen (human, UniProt P02671 20-629; P02675 31-491; P02679 27-437, limits assumed)
T1 construct: Bought (Sigma), coated on 96-well plates at 50 ug/ml in TBS pH 8.5; also called fibrinogen (Sigma) plate; fibrinogen (2)
T1 sequence (looked up) 1: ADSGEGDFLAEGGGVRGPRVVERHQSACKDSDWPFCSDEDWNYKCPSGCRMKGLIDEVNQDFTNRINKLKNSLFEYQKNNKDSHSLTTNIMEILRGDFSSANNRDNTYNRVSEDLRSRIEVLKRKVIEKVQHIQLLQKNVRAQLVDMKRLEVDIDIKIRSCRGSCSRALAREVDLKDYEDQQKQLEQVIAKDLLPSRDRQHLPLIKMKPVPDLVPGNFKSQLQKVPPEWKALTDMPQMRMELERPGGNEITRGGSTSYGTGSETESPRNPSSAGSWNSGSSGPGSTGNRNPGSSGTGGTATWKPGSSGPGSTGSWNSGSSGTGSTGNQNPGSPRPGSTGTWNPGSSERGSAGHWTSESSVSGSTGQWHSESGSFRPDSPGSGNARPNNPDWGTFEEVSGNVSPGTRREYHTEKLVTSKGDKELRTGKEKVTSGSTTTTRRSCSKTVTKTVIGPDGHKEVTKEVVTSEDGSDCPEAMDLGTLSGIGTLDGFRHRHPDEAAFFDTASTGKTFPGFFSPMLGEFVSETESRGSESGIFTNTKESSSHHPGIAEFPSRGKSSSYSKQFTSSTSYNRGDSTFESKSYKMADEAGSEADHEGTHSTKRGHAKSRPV
T1 sequence (looked up) 2: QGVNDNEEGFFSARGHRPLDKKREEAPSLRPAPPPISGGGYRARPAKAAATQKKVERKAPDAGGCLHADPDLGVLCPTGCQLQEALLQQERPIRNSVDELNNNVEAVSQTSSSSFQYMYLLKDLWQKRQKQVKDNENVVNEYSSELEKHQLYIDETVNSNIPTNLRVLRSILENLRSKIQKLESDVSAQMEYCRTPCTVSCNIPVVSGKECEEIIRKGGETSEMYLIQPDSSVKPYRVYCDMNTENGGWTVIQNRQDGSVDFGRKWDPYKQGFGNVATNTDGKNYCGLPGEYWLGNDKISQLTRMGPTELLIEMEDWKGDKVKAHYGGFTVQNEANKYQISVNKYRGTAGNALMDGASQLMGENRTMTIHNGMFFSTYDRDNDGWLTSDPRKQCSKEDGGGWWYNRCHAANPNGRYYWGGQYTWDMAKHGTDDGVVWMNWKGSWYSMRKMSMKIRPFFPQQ
T1 sequence (looked up) 3: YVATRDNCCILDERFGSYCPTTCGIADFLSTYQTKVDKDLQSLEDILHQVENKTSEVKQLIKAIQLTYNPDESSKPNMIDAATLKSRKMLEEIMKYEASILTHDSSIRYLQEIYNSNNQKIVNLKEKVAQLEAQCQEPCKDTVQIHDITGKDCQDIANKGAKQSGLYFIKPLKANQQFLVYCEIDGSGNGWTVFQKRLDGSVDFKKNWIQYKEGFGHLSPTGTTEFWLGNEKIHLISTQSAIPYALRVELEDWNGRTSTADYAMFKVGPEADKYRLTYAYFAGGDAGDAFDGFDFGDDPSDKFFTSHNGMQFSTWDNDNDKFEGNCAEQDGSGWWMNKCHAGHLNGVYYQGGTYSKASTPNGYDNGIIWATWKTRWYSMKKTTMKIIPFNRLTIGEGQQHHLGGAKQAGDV

T2: human fibrin (human, UniProt P02671 36-629; P02675 45-491; P02679 27-437, limits assumed)
T2 construct: Made on the plate: fibrinogen (Sigma) coated at 50 ug/ml, dried, then treated with 10 NIH U/ml human thrombin with 10 mM CaCl2 and 7 mM L-cysteine; also called fibrin plate; fibrin (1)
T2 sequence (looked up) 1: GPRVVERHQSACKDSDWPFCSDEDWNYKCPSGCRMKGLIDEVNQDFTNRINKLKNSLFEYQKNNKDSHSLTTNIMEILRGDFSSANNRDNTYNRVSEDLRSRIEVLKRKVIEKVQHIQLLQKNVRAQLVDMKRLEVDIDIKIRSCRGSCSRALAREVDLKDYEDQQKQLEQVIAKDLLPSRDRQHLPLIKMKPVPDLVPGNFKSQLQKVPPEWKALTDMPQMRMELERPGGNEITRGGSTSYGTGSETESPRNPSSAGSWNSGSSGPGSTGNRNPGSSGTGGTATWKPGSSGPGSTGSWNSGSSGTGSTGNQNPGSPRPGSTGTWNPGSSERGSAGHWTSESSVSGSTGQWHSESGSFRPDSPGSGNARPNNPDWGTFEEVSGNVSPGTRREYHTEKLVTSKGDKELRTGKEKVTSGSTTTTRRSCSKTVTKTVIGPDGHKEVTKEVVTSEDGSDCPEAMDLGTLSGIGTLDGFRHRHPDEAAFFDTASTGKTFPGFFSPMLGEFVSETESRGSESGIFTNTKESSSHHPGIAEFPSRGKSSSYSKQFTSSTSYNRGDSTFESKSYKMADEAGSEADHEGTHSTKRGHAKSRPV
T2 sequence (looked up) 2: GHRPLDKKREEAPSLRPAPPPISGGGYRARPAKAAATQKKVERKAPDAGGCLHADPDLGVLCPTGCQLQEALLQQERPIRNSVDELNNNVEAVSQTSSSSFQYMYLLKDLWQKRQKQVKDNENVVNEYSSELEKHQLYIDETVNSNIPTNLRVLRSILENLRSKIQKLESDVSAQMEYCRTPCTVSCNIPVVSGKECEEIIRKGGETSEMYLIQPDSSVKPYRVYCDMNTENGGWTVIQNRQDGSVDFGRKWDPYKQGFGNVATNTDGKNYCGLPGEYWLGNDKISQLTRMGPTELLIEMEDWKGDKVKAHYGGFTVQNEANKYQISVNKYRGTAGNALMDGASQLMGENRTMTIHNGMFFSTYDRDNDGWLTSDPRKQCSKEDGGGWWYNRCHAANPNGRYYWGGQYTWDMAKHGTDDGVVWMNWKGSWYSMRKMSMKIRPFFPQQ
T2 sequence (looked up) 3: T1 sequence (looked up) 3

T3: mouse fibrinogen (mouse, UniProt E9PV24 20-557; Q8K0E8 20-481; Q8VCM7 26-436, limits assumed)
T3 construct: also called fibrinogen (4)
T3 sequence (looked up) 1: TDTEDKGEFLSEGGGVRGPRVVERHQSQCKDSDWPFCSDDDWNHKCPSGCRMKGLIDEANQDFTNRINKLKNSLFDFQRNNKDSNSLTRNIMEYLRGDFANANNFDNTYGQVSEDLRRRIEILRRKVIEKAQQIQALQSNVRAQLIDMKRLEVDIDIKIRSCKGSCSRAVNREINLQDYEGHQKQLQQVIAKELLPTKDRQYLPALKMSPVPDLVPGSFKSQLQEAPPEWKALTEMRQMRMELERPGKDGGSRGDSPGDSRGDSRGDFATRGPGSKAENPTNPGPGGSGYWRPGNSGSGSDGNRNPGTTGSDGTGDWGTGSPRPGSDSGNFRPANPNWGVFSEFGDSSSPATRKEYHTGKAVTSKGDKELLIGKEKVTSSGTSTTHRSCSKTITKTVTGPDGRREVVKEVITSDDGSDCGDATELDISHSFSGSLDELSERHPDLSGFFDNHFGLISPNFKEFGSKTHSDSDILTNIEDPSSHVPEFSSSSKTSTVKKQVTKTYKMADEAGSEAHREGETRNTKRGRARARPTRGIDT
T3 sequence (looked up) 2: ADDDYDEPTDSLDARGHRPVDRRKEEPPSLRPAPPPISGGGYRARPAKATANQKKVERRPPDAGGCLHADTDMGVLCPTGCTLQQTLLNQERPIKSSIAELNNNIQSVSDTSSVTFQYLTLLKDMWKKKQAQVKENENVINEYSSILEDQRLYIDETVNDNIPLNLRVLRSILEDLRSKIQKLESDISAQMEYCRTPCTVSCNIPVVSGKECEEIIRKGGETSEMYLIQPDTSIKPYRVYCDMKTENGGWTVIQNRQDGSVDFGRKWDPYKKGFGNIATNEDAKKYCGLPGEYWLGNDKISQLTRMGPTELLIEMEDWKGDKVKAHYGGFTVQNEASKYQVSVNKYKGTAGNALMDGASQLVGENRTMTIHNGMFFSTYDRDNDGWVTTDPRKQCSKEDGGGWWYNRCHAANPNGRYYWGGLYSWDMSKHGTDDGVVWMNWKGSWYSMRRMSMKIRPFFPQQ
T3 sequence (looked up) 3: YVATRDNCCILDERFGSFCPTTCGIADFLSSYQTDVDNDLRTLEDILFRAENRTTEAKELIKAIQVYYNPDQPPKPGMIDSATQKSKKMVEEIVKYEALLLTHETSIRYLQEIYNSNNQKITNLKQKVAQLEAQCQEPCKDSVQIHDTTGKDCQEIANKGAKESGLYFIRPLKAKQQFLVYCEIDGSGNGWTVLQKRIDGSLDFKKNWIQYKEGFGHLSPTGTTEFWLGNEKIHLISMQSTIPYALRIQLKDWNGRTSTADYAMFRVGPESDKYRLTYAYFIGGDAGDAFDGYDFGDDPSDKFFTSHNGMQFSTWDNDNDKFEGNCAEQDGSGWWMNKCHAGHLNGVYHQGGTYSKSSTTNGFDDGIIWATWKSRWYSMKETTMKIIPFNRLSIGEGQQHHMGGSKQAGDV

B1: mouse anti-fibrin IgM antibody produced by hybridoma cell line 102-10 (accession number NITE BP-923) (antibody, V domains shown)
VH: QIQLVQSGPELKKPGETVKISCKASGYTFTNYGMNWVKQAPGKGLKWMGWINTYTGEATYADDFKGRFAFSLETSANTAYVQINNLKNEDTATYFCARLMDYWGQGTSVTVSS
VL: DIQMTQSPSSLSASLGGKVTITCKASQDINKYIAWFQHKPGKGPRLLIHYTSTLQPGIPSRFSGSGSGRDYSFSISNLEPEDLATYYCLQYDNLTWTFGGGTKLEIK
notes: Mouse IgM; Tested as hybridoma culture supernatant in ELISA; also called clone 102-10; mouse IgM antibody
B2: human type anti-fibrin chimeric antibody (human type IgG clone 102-10Hu) (antibody, V domains shown)
VH: B1 VH
VL: B1 VL
notes: made in CHO cells, purified on Protein G and hydroxyapatite; They may include a leader peptide; no cleavage site is stated; also called human chimeric antibody; human chimeric anti-fibrin IgG

How the values were obtained:
human fibrinogen [1] = molecular target: T1, human fibrinogen; assay: ELISA, hybridoma culture supernatant (undiluted) on fibrinogen plate; selection of the clone
human fibrin [2] = molecular target: T2, human fibrin; assay: ELISA, hybridoma culture supernatant (undiluted) on fibrin plate; selection of the clone
mouse fibrinogen [3] = molecular target: T3, mouse fibrinogen; assay: ELISA, hybridoma 102-10 culture supernatant on fibrinogen plate (Fig. 1C)
mouse fibrinogen [4] = molecular target: T3, mouse fibrinogen; assay: ELISA, purified chimeric antibody on fibrinogen plate (Fig. 3)
human fibrinogen [5] = molecular target: T1, human fibrinogen; assay: as above
human fibrin [6] = molecular target: T2, human fibrin; assay: ELISA, purified chimeric antibody on fibrin plate (Fig. 3)

Binder	binding result (human fibrinogen [1])	binding result (human fibrin [2])	binding result (mouse fibrinogen [3])	binding result (mouse fibrinogen [4])	binding result (human fibrinogen [5])	binding result (human fibrin [6])
B1	no binding	binds	no binding	–	–	–
B2	–	–	–	no binding	no binding	binds
